# Test results as given in patent US8597922B2, “Methods and compositions for producing olefins” (LS9, Inc., priority 2007, dated 2013).
# B1: ORF880: olefin-producing enzyme (fatty acid decarboxylase) from Jeotgalicoccus sp. ATCC 8456, SEQ ID NO:2 (protein)
# chain: MATLKRDKGLDNTLKVLKQGYLYTTNQRNRLNTSVFQTKALGGKPFVVVTGKEGAEMFYNNDVVQREGMLPKRIVNTLFGKGAIHTVDGKKHVDRKALFMSLMTEGNLNYVRELTRTLWHANTQRMESMDEVNIYRESIVLLTKVGTRWAGVQAPPEDIERIATDMDIMIDSFRALGGAFKGYKASKEARRRVEDWLEEQIIETRKGNIHPPEGTALYEFAHWEDYLGNPMDSRTCAIDLMNTFRPLIAINRFVSFGLHAMNENPITREKIKSEPDYAYKFAQEVRRYYPFVPFLPGKAKVDIDFQGVTIPAGVGLALDVYGTTHDESLWDDPNEFRPERFETWDGSPFDLIPQGGGDYWTNHRCAGEWITVIIMEETMKYFAEKITYDVPEQDLEVDLNSIPGYVKSGFVIKNVREVVDRT
# modifications: Jeotgalicoccus sp. ATCC8456
# Assays:
# [1] = system: E. coli; test: Heterologous expression of 8456_orf880 in E. coli with fatty acid feeding; format: cell-based
# Protocol: ATCC 8456 cells were grown in 15 mL TSBYE medium (3% Tryptic Soy Broth+0.5% Yeast Extract). Fatty acids were added to the culture medium at final concentrations of 0.5 g/l (0.05%). After growth for 40-48 h at 30° C., cells from 5 mL of culture were pelleted, resuspended in 1 mL methanol, sonicated for 30 min, and extracted with 4 mL hexane. After solvent evaporation, samples were resuspended in 0.1 mL hexane and analyzed by GC-MS.
# Jeotgalicoccus ATCC 8456 ORF880 was identified as one of the two major proteins in a highly purified enzyme fraction that catalyzed the conversion of free fatty acids to α-olefins. The genomic DNA encoding ATCC 8456_orf880 was cloned into pCDF-Duet1 under the control of the T7 promoter, and E. coli was transformed with various vectors, as described below. The E. coli cells were grown, and the hydrocarbons produced by the cells were analyzed as described in Example 2. When 0.05% stearic acid was fed to cultures of E. coli transformed with the 8456_orf880-containing vector, the expression of 8456_orf880 led to the formation of 1-heptadecene in E. coli (see FIG. 8, depicting GC/MS traces of α-olefins from E. coli either without (black) or with (gray) expression of 8456_orf880). […] Additionally, when E. coli cells expressing 8456_orf880 protein were fed with 0.05% palmitic acid or 0.05% eicosanoic acid, the production of 1-pentadecene or 1-nonadecene, respectively, was observed.
# [2] = system: E. coli MG1655 ΔfadD; test: α-Olefins from glucose by expression of orf880 in E. coli MG1655 ΔfadD; format: cell-based; settings: glucose (1%, w/v) only carbon source, versus vector-only control
# Protocol: The genomic DNA encoding ATCC 8456_orf880, which was codon-optimized for expression in E. coli (SEQ ID NO:4), was cloned into vector OP80 (pCL1920 derivative) under the control of the Ptrc promoter, and E. coli MG1655 ΔfadD was transformed with the resulting vector. The E. coli cells were grown at 37° C. in M9 mineral medium supplemented with 20 μg/mL uracil and 100 μg/mL spectinomycin. Glucose (1%, w/v) was the only source of carbon and energy. When the culture reached an OD600 of 0.8 to 1.0, IPTG (1 mM) and 0.5 mM delta-aminolaevulinic acid (heme biosynthesis precursor) were added. The temperature was shifted to 25° C. After growth for an additional 18 to 24 h at 25° C., the cells from 10 mL of culture were pelleted, resuspended in 1 mL methanol, sonicated for 30 min, and extracted with 4 mL hexane. After solvent evaporation, the samples were resuspended in 0.1 mL hexane and analyzed by GC-MS.
molecule,measurement,setting,value
B1,α-olefin produced,[1]; 0.05% eicosanoic acid fed,1-nonadecene
same,α-olefin produced,[1]; 0.05% palmitic acid fed,1-pentadecene
same,α-olefin produced,[1]; 0.05% stearic acid fed,1-heptadecene
same,α-olefins produced,[2],1-pentadecene and heptadecadiene
